# From the supplement of paper PMC7877785
# ± gives the uncertainty stated by the source.
# Assay: self-splicing fitness, log relative to wild type (ln ratio); higher = more splicing; Tetrahymena group I intron in knt gene, E. coli kanamycin selection, DiMSum; sequences stand for … in CUCUCU…GGAGGGAAAAGUUAUCAGGCAUGCACCUGGUAGCUAGUCUUUAAACCAAUAGAUUGCAUCGGUUUAAAAGGCAAGACCGUCAAAUUGCGGGAAAGGGGUCAACAGCCGUUCAGUACCAAGUCUCAGGGGAAACUUUGAGAUGGCCUUGCAAAGGGUAUGGUAAUAAGCUGACGGACAUGGUCCUAACCACGCAGCCAAGUCCUAAGUCAACAGAUCUUCUGUUGAUAUGGAUGCAGUUCACAGACUAAAUGUCGGUCGGGGAAGAUGUAUUCUUCUCAUAAGAUAUAGUCGGACCUCUCCUUAAUGGGAGCUAGCGGAUGAAGUGAUGCAACACUGGAGCCGCUGGGAACUAAUUUGUAUGCGAAAGUAUAUUGAUUAGUUUUGGAGUACUCGUGGUCG
# Method in brief: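 Pooled colonies went to amplicon sequencing on an Illumina HiSeq 2500 after six replicate transformations. The plates were LB agar with 100 μg/mL carbenicillin, 50 μM IPTG and 0.2% rhamnose, with or without 25 μg/mL kanamycin, incubated overnight at 37°C or 30°C. The E. coli BL21(DE3) library had all eight P1ex-region intron nucleotides randomised, the intron placed in the knt kanamycin-resistance gene on pET-22b(+). DiMSum fitness is the error-weighted combination of replicate fold changes, kanamycin against none, normalised to wild type.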
Sequence,self-splicing fitness (ln) (30 °C),self-splicing fitness (ln) (37 °C)
CUAGAGCAAUAUUACGUCGA,-3.94 ± 0.28,-2.34 ± 0.28
UUGUAGCAAUAUUACGUGGG,-4.04 ± 0.46,-2.06 ± 0.24
CGUCAGCAAUAUUACGAGGG,-3.93 ± 0.1,-1.81 ± 0.099
GACUAGCAAUAUUACGGCGU,-0.502 ± 0.11,-0.198 ± 0.1
CUAUAGCAAUAUUACGCGUU,-4.27 ± 0.42,-2.18 ± 0.3
ACAUAGCAAUAUUACGUGUG,-2.41 ± 0.065,-1.58 ± 0.069
AUUUAGCAAUAUUACGCCAU,-0.966 ± 0.27,0.446 ± 0.24
CUUUAGCAAUAUUACGAUGA,-3.2 ± 0.25,-2.01 ± 0.18
UGUGAGCAAUAUUACGUGUG,-2.7 ± 0.11,-0.66 ± 0.13
ACCGAGCAAUAUUACGUUCG,-3.19 ± 0.48,-1.76 ± 0.23
CAGUAGCAAUAUUACGAGUC,-4.27 ± 0.27,-2.36 ± 0.17
GUAUAGCAAUAUUACGUAAA,-2.75 ± 0.31,-1.66 ± 0.31
UGUUAGCAAUAUUACGAUGG,-1.71 ± 0.11,-0.474 ± 0.1
GCUAAGCAAUAUUACGUGCU,-2.4 ± 0.14,-2.13 ± 0.25
CAACAGCAAUAUUACGAAUA,-3.74 ± 0.28,-1.83 ± 0.2
CCAAAGCAAUAUUACGAUCG,0.0481 ± 0.058,-0.183 ± 0.075
CGCAAGCAAUAUUACGCCCG,-1.22 ± 0.21,-1.93 ± 0.31
CGACAGCAAUAUUACGAUAA,-3.74 ± 0.28,-1.27 ± 0.14
CCAUAGCAAUAUUACGCUCG,-1.69 ± 0.1,-0.407 ± 0.13
GGAGAGCAAUAUUACGUACG,-2.56 ± 0.43,–
GAGCAGCAAUAUUACGCCAA,-1.55 ± 0.29,-1.43 ± 0.31
GGAUAGCAAUAUUACGGAUC,-0.869 ± 0.084,-0.269 ± 0.11
AUCGAGCAAUAUUACGGAGU,-3.83 ± 0.31,-2.42 ± 0.23
CUCAAGCAAUAUUACGCAGU,-3.28 ± 0.18,-2.32 ± 0.22
AAAAAGCAAUAUUACGCCUG,-0.823 ± 0.09,-0.000429 ± 0.12

Sequence,self-splicing fitness (ln) (30 °C),self-splicing fitness (ln) (37 °C)
CCAAAGCAAUAUUACGCCUG,-0.536 ± 0.055,-0.707 ± 0.07
UAGUAGCAAUAUUACGUGUU,-3.65 ± 0.21,-1.95 ± 0.15
GAAGAGCAAUAUUACGUCCU,-2.59 ± 0.48,-0.861 ± 0.29
GACGAGCAAUAUUACGGUAC,-1.99 ± 0.39,-1.98 ± 0.34
UCUGAGCAAUAUUACGAGCG,-1.93 ± 0.15,-2.37 ± 0.39
AAUUAGCAAUAUUACGCACU,-0.0585 ± 0.12,-0.106 ± 0.15
UAACAGCAAUAUUACGCGCC,-1.47 ± 0.1,-0.587 ± 0.13
CAUCAGCAAUAUUACGUGUG,-2.72 ± 0.092,-1.38 ± 0.08
UUGGAGCAAUAUUACGGAUG,-3.54 ± 0.34,-2.12 ± 0.4
UAGCAGCAAUAUUACGGACA,-0.821 ± 0.11,-0.11 ± 0.13
CAUUAGCAAUAUUACGGUGG,-0.719 ± 0.066,0.024 ± 0.093
GCUGAGCAAUAUUACGACCU,-2.35 ± 0.26,-1.15 ± 0.33
CUCCAGCAAUAUUACGCGCA,-3.34 ± 0.31,-2.56 ± 0.49
AACGAGCAAUAUUACGUAAG,-4.14 ± 0.3,-0.595 ± 0.14
GGACAGCAAUAUUACGCCAG,-2.17 ± 0.22,-2.07 ± 0.35
GAGGAGCAAUAUUACGCUUG,-1.28 ± 0.15,-1.27 ± 0.2
ACGAAGCAAUAUUACGCGCU,-1.01 ± 0.09,0.163 ± 0.12
CCGUAGCAAUAUUACGGGUC,-2.96 ± 0.21,-2.55 ± 0.2
ACGUAGCAAUAUUACGCAGG,-3.67 ± 0.24,0.325 ± 0.1
GUUUAGCAAUAUUACGCAGG,-1.36 ± 0.2,-2.04 ± 0.34
ACAAAGCAAUAUUACGUGUC,-3.69 ± 0.14,-3 ± 0.16
UUCCAGCAAUAUUACGAGAC,-2.82 ± 0.27,-1.79 ± 0.32
CUAUAGCAAUAUUACGAUGG,-3.44 ± 0.24,-1.18 ± 0.14
GGGCAGCAAUAUUACGCCUC,–,-1.42 ± 0.31
GGCUAGCAAUAUUACGGAAG,-1.13 ± 0.11,-0.386 ± 0.14

Sequence,self-splicing fitness (ln) (30 °C),self-splicing fitness (ln) (37 °C)
CCCGAGCAAUAUUACGAUAG,-3.17 ± 0.22,-2.02 ± 0.2
GUAGAGCAAUAUUACGUUUU,-2.47 ± 0.16,-1.36 ± 0.18
UCGGAGCAAUAUUACGCCGA,-3.12 ± 0.32,–
UAUCAGCAAUAUUACGGCCA,0.201 ± 0.12,0.167 ± 0.11
CCGUAGCAAUAUUACGGCCG,-1.05 ± 0.16,-0.466 ± 0.18
CAAAAGCAAUAUUACGCUGU,-3.49 ± 0.25,-1.73 ± 0.18
GCGUAGCAAUAUUACGAACC,–,-1.63 ± 0.36
UGUCAGCAAUAUUACGCGAG,-1.31 ± 0.096,-0.991 ± 0.098
ACCUAGCAAUAUUACGAUAA,-2.61 ± 0.27,-2.1 ± 0.23
CGAUAGCAAUAUUACGAGUC,-2.74 ± 0.19,-3.73 ± 0.39
GUUUAGCAAUAUUACGGCGG,-3.27 ± 0.44,–
UACAAGCAAUAUUACGCAGC,-4 ± 0.42,-2.63 ± 0.39
ACUAAGCAAUAUUACGUGGC,-3.03 ± 0.14,-2.57 ± 0.17
GUAAAGCAAUAUUACGCAUA,-1.1 ± 0.098,-0.728 ± 0.11
AAUAAGCAAUAUUACGCACG,-1.06 ± 0.11,-0.851 ± 0.14
CGUGAGCAAUAUUACGGGGU,-3.62 ± 0.2,-3.32 ± 0.26
UCUGAGCAAUAUUACGCGUU,-4.91 ± 0.45,-2.63 ± 0.28
AGUAAGCAAUAUUACGGCAA,-0.915 ± 0.11,-0.179 ± 0.096
UCUUAGCAAUAUUACGAGGG,-1.87 ± 0.16,-2.1 ± 0.25
CCGAAGCAAUAUUACGAGAA,-2.48 ± 0.47,-1.17 ± 0.49
CCUUAGCAAUAUUACGCUCG,–,-1.73 ± 0.27
UGGAAGCAAUAUUACGGUAA,-1.48 ± 0.18,-0.845 ± 0.14
ACCUAGCAAUAUUACGGGGA,-1.11 ± 0.08,-0.794 ± 0.096
AGUCAGCAAUAUUACGCCAA,-2.75 ± 0.34,-0.963 ± 0.2
UAUGAGCAAUAUUACGGGAG,-1.86 ± 0.19,-2.95 ± 0.24

Sequence,self-splicing fitness (ln) (30 °C),self-splicing fitness (ln) (37 °C)
AGGAAGCAAUAUUACGUCCA,-0.764 ± 0.14,-0.0963 ± 0.22
UGGAAGCAAUAUUACGCCCG,-0.383 ± 0.22,0.191 ± 0.27
ACCGAGCAAUAUUACGUAUG,-3.56 ± 0.15,-2.28 ± 0.15
ACCUAGCAAUAUUACGAAUG,-3.04 ± 0.15,-2.3 ± 0.13
UCUAAGCAAUAUUACGGGAA,-2.29 ± 0.22,-1.76 ± 0.14
GGAUAGCAAUAUUACGUCCU,-3.13 ± 0.19,-1.84 ± 0.24
ACUGAGCAAUAUUACGAAUU,-2.97 ± 0.29,-2.1 ± 0.24
UCAGAGCAAUAUUACGUUGG,-3.05 ± 0.21,-2.9 ± 0.35
AGUUAGCAAUAUUACGAUCU,-0.0546 ± 0.1,0.11 ± 0.13
UCUCAGCAAUAUUACGCAGC,-3.54 ± 0.24,-2.32 ± 0.21
CCGCAGCAAUAUUACGCCCC,-3.29 ± 0.36,-1.4 ± 0.45
CGUAAGCAAUAUUACGCGAC,-3.62 ± 0.37,-2.63 ± 0.42
ACCUAGCAAUAUUACGGCGG,-1.36 ± 0.12,-1.6 ± 0.14
GGUGAGCAAUAUUACGAGUU,-2.39 ± 0.27,-0.657 ± 0.16
AUCCAGCAAUAUUACGAUAA,-1.56 ± 0.15,-1.03 ± 0.19
CUAGAGCAAUAUUACGCGUU,-4.14 ± 0.24,-2.46 ± 0.27
UGAGAGCAAUAUUACGUGCC,–,-2.99 ± 0.43
GCGGAGCAAUAUUACGGCAA,–,-1.74 ± 0.18
AACAAGCAAUAUUACGUAUG,-3.33 ± 0.12,-1.85 ± 0.1
GCCUAGCAAUAUUACGUUGG,-3.78 ± 0.32,-2.7 ± 0.25
UCGCAGCAAUAUUACGACUG,-1.93 ± 0.14,-2.7 ± 0.25
UCCAAGCAAUAUUACGUUGA,-0.725 ± 0.061,-0.109 ± 0.073
